Measurements reported in PMC10992505, “Customized exogenous ferredoxin functions as an efficient electron carrier” (Bioresources and Bioprocessing, 2021).

B1: Drosophila melanogaster Fdx2 (DmFdx2) (natural protein, UniProt Q8SZA8 30-152, looked up)
chain: STGLALKTKDVVNITFVRANGDKIKTSGKVGDSLLDVVVNNNVDLDGFGACEGTLTCSTCHLIFKTSDFEKLPDKPGDEELDMLDLAYELTDTSRLGCQITLSKDMEGLEVHVPSTINDARAA
notes: Drosophila melanogaster ferredoxin 2 (Fdx2), plant-type [2Fe-2S] ferredoxin; Carries a [2Fe-2S] cluster; Cloning into pET28a at NdeI would place the His6 tag at the N-terminus (surmised); also called free Fdx; plant-type Fdx; source: E. coli BL21(DE3), purified (Ni-NTA, Resource Q anion exchange)
B2: KshA, Rieske-type oxygenase of 3-ketosteroid-9-hydroxylase from Rhodococcus erythropolis (enzyme)
chain: MALGTGPLTTTDASTQSGAGEEIREIEAAAPPARFARGWHCLGLSNTYRDGQPHQIEAFGTSLVVFADSKGDIKILDAYCRHMGGNLAHGTVKGDSIACPFHDWRWGGNGKCTAIPYARRVPPLAKTRAWTTLEKNGQLFVWHDPQGNPPPAEVTIPDIEGFGSDEWSDWSWNTLTIEGSHCREIVDNVVDMAHFFYVHYSFPKYFKNIFEGHVASQYMESVGREDIISGTNYGDPNAVLRSDASYFGPSYMIDWIKSEANGQIIETVLINCHYPISNNAFVLQYGAMVKKLPGMDDESTAAMAAQFTEGVEMGFLQDVEIWKNKAPIDNPLLSEEDGPVYQLRRWYNQFYTDVENVTEDMTKRFEFEIDTTRAVESWKREVAENVAARDAQALETTS

Assays:
[1] = tested on: T1, TDO (TDO_R; toluene 2,3-dioxygenase reductase with TDO-Fdx); conditions: electron acceptor not stated; MTDO, plant-type cluster; fusion numbering
T1 construct: gene todA

[2] = biological target: T2, PRF (CYP116B46 reductase domain, V465-L779) (Tepidiphilus thermophilus, UniProt A0A0K6ITW2, C736H/C766H, form not given); assay: NADH oxidation, absorbance […] nm; type: biochemical
T2 construct: gene Ga0061068_103196

[3] = biological target: PRF, reductase domain and Fdx (V465-L779) of Tepidiphilus thermophilus self-sufficient P450 CYP116B46 (Tepidiphilus thermophilus); assay: ITC; 0.2 mM DmFdx2 in the syringe, 2 uL injections into 0.02 mM KshA or PRF in the cell; 20 mM HEPES pH 7.4, 25 °C; one-site binding model
[4] = biological target: B2; assay: as above; conditions: both partners purified
[5] = biological target: B1; assay: as above; conditions: both partners purified
purified protein = substrate: NC(=O)C1=CN([C@@H]2O[C@H](COP(=O)(O)OP(=O)(O)OC[C@H]3O[C@@H](n4cnc5c(N)ncnc54)[C@H](O)[C@@H]3O)[C@@H](O)[C@H]2O)C=CC1; assay: purified protein; type: biochemical, Tepidiphilus thermophilus

T2 sequence (A0A0K6ITW2 entry or part of it C736H/C766H, form open): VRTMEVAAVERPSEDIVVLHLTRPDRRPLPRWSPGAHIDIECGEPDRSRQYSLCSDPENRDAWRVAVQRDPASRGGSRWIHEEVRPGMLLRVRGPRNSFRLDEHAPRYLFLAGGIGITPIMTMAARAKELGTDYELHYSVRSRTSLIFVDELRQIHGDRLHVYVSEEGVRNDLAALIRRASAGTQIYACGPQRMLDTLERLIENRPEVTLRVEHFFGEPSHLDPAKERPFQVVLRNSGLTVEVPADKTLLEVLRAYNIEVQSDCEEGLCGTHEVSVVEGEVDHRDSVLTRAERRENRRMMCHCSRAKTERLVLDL

Molecule: NC(=O)C1=CN([C@@H]2O[C@H](COP(=O)(O)OP(=O)(O)OC[C@H]3O[C@@H](n4cnc5c(N)ncnc54)[C@H](O)[C@@H]3O)[C@@H](O)[C@H]2O)C=CC1 [NADH]
Km [1]: 63.5 ± 2.95 µM
Km [2]: 63.1 ± 2.37 µM

Molecule: B1
Ka [3]: 1.5e+07 M⁻¹
dH [3]: -1.91 kcal/mol
stoichiometry N [3]: 0.75
dH [4]: -1.43 ± 0.0311 kcal/mol
stoichiometry N [4]: 0.4 ± 0.02

Molecule: B2
Ka [5]: 2.1e+07 M⁻¹

B3: (Tepidiphilus thermophilus) (protein)
chain: VRTMEVAAVERPSEDIVVLHLTRPDRRPLPRWSPGAHIDIECGEPDRSRQYSLCSDPENRDAWRVAVQRDPASRGGSRWIHEEVRPGMLLRVRGPRNSFRLDEHAPRYLFLAGGIGITPIMTMAARAKELGTDYELHYSVRSRTSLIFVDELRQIHGDRLHVYVSEEGVRNDLAALIRRASAGTQIYACGPQRMLDTLERLIENRPEVTLRVEHFFGEPSHLDPAKERPFQVVLRNSGLTVEVPADKTLLEVLRAYNIEVQSDCEEGLCGTCEVSVVEGEVDHRDSVLTRAERRENRRMMCCCSRAKTERLVLDL
Km (purified protein): 39.11 ± 1.49 µM
kcat (purified protein): 66.43 ± 0.34 s⁻¹
kcat/Km (purified protein): 1.7e+06 M⁻¹ s⁻¹
